The data set can be described thus: yeast display, Sf9 membrane polyspecificity reagent, FACS + sequencing; frameworks hold sequencing errors. The method in brief:
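Galactose induction of a Saccharomyces cerevisiae BJ5465 synthetic nanobody display library ran 36–48 hours. The cells were then stained for 1 hour at 4 °C with 10% biotinylated, detergent-solubilized Sf9 membrane reagent, pulled down on streptavidin microbeads and FACS-sorted into low and high (top ~1%) gates on expression and reagent-binding fluorescence. Labels for polyreactivity follow the gate of origin.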
In the case of “QVQLVESRGGLVQAGASLRLSCAASALIFGYYAMGCYRQAPVKEREFVAAIDGSDGTTYYADSVKGRFTIARDNAKNTVYLQMNSLKPEDTAVYYCNADSSSYSSDLGYDYWGQGTQVTVSS”, the “polyreactivity (PSR sort gate)” value is recorded as “low polyreactivity”.

Take “QVQLEESGGGLVQAGGSLRLSCAPSGFIFAWYAMGCYRQAPGKERELVATISSSGARTYYADSVKGRFTISRDNAKNTVYLQMNSLKPEDTAVYYCAVGSVGRLKFYYWGQGTQVTVSS”: the “polyreactivity (PSR sort gate)” value is “high polyreactivity”. On to “QVQLVEAGGGLVQAGGSLRISCAASGITFLSNAMGWYRQAPGKEMELVAVITIGGSTYYADSVKGRFTISRDNAKNTVFLQLNSLKPEDTAVYYCAVELVAVPDRRFNYWGQGTQVTVSS”, for which the “polyreactivity (PSR sort gate)” value is given as “low polyreactivity”. As to “QVQLVESGGGLVQAGGSLRLSCAASGFIFGYNDMGWYRQAPGKERELVAAINSGGSTYYADSVKGRFTISRDNAKNTVYLQMNSLKPEDTAVYYCAADYGYFEYDYWGQGTQVTVSS”, the “polyreactivity (PSR sort gate)” value is on record as “low polyreactivity”. Turning to “QVQLVESGAGLVQAGGSLRLCCAASGSIFAPYAMGWYRQAPGKERELVAAISRSGGSTYYADSVKGRFTISRDNAKNTVYLQMNSLKPEDTAVYYCADRNGLRQYRLDYWGQGTQVTVSS”, the “polyreactivity (PSR sort gate)” value is “high polyreactivity”. Turning to “QVQLVESGGGIVQAGGSLRLISAASGRTYKSYTIGWYRQAPGKEREFVAAISSRGGNTYYADSVKGRFTISRDNAKNTVYLQMNSLKPEDTAVYYCAARYGYSYDRRDYWGQGTQVTVSS”, the “polyreactivity (PSR sort gate)” value is “high polyreactivity”.

As for “QVQLVESGGGLVQAGGSLRLSCADSGSTFTSNAMRWYRQAPGKEREFVAAINWGGSITYYADSVKGRFTISRDNAKNTVYLQMNSLKPEDTAVYYCAAETYYDTYYPEGDYWGQGTQVTVSS”, the “polyreactivity (PSR sort gate)” value was “low polyreactivity”. As for “QVQLVESGGGLVQAGGSLRLSCAASGSTFVPNAMGWYRQAPGKERELVAGISWSGGGTSYADSVKGRFTISRDNAKNTVYLQMNSLKPEDTAVYYCAVVGYEQNEYDYWGQGTQVTVSS”, the “polyreactivity (PSR sort gate)” value is given as “low polyreactivity”.

With “QVQLVESGGGLDQAGGSLRLSCAASGSIFYFNAMGWYRQAPGKARELVAAISTSGGSTYADSVKGRFTISRDNAKYTVYLQMNSLKPEDSAVYYFAADYLTSRSRTFDYWGQGTQVTVSS”, the “polyreactivity (PSR sort gate)” value was “low polyreactivity”. Turning to “QVQLVESGGGLVQAGGSLRLSCAASGFIIPGYAMGWYRQAPGKERELVAAISSGTSTYYADSVKGRFTISRDNAKNTVYLQMNSLKPEATAVYYCAADTWYRFGYWGQGTQVTVSS”, the “polyreactivity (PSR sort gate)” value was “low polyreactivity”. In the case of “QVQLVESGGGLVQAGGSLRLSCAASGRIFTIYAMGWYRQAPGKERELVAGIRGGGSTNYADSVKGRFTISRDNAKNTVYLLMNSLKPEDTAVYYCAAEVRRYVIVPYYYWGQGTQVTVSS”, the “polyreactivity (PSR sort gate)” value was “high polyreactivity”. For the sequence “QVQLVESGGGLVQAGGILRLSCAASGFIFRDYAMGWYRQAPGKERELVAAISFTDGTTYYADSVKGRFTISRDNAKNTVYLQMNSLKPEDTAVYYCAAGYTGYTYTELDYWGQGTQVTVSS”, the “polyreactivity (PSR sort gate)” value was “low polyreactivity”.

“HVQLVESGGGLVQAGGSLRLSCAASGIIFYYYTMGWYRPGPRKERELLAWSGGNTYYADSVKGRFTISRDNAKNTVYLQMNSLKPEDTAVYYCNALAIWSDDWDHWISYADDYWGQGTQVTVSS”: the “polyreactivity (PSR sort gate)” value is listed as “low polyreactivity”. The same measure for “QVQLVESGGGLVQAGGSLRLSCAASGRTFWYYAMGWYRQAPGKERELVARISTGGSTNYADSVKGRFTISRDNAKNTVYLQMNSLKPEDTAVYYCAARPVWRRPSKFDYWGQGTQVTVSS”: “high polyreactivity”.

“QVHLVESGGGLVQAGGSLRLSCAASGFTFVRYAMGWYRQAPGKERELVASISYSGGSTYYADSVKGRFTISRDNAKNTVYLQMNSLKPEDTAVYYCAALHRINTLLLPMDYWGQGTQVTVSS”: the “polyreactivity (PSR sort gate)” value was “high polyreactivity”.

Consider “QVQLVESGGGLVQAGGSLRLSCAASGRTFARYAMGWYRQAPGKERELVASNRRGTSTNYADSVKGRFTISRDNAKNTVYLQMNSLKPEDTAVYYCAARVGTQGDHGDYWGQGTQVTVSS”, for which the “polyreactivity (PSR sort gate)” value was “high polyreactivity”.

Regarding “QVQLVESGGGLVQAGGSLRLSCAASGITFIGYAMGWYRQAPGKERELVAAITTNGGGTYYADSVKWRFTISRDNAKKTVYLQMNSLKPEDTAVYYCNAVKQRSSIFDYWGQGSQVTVSS”, the “polyreactivity (PSR sort gate)” value was “low polyreactivity”.

“QVQLVESGGGLVQAGGSLRLSCAASGSIFGRYGAMGWYRQAPGKDRELVAAIRTSGVSTYYADSVKGRYTISRDNAKKTVYLQMNSLKPEDTAVYYCAKGYTSYNLGKYGYWGQGTQVTVTS”: the “polyreactivity (PSR sort gate)” value was “high polyreactivity”. On to “QVQLVESGGGLVQAGGSLRLICAASGSIFRYAMGWYRQAPGKERELVAAINRSGGSTYYADSVKGRFTISRDNAKNTVYLQMNSLKTEDTEVYYCAKDLRYGVNYRLVNRYGYWGQGTQVTVSS”, for which the “polyreactivity (PSR sort gate)” value is recorded as “high polyreactivity”. With “QVQLVESGGGLVQAGGILRLSCAASGITFIRNGMGWYRQAPGKERELVAAISDTGARTYYADSVKGSFTISRDNAKNTVYLQMNSLKPVDTAVYYCAAEVRTRYLYSFRWYDYWGQGTQVTVSS”, the “polyreactivity (PSR sort gate)” value is recorded as “low polyreactivity”. The result for “QVQLVESGGGLVQAGGSLRLSCAASGITFRGNVMGWYRQAPGKERELVAAISGSSGRTYYADSVKGRFTISRDNAKNTVYLQMYSLKPEDTAVYYCAATRTVRSYSIAPALGYWGQGTQVTVSS” reads “high polyreactivity”; that for “EEELVESGGGLVQAGGSSLRLSCAASGRTFSTNVMGWYRQAPGKERELVAAINRSGGSTYYADSVKGRFTISRDNAKNTVYLQMNSLKPEDTAVYYCAKRDGVGNHEFDYWGQGTQVTVSS”, “low polyreactivity”; that for “QVQLVETGVGLVQAGGSLRLSCAASGSTFPGYAMGWYRQAPGKERELVAAISASGGSTYYADSVKGRFTISRDIAKNTVYLQMNSLKPEDTEVYYCAKVLSRGASAHDYWGLGTQVTVSS”, “low polyreactivity”. The same measure for “QVQLVESGGGLVQAGGSLRLSCAASGRTFWYYTMGWYRQAPGKERELVAAITRRGGSTYYADSVKGRFTLSRDKAKNTVYLQMNSLKPEDTAVYYCARGGSRLTQGWLVTPYDYDYWGQGTQVTVSS”: “high polyreactivity”; for “QVQLVESGGGLVQAGGSLRLSCAASGSTFDSNDMGWYRQAPGKERELVAGITWSGASTYYADSVKGRFTISRDNAKNTVYLQMNSLKPEDTAVYYCAAGPWGTGHYVQGPVYYYRYDYWGQGTQVTVSS”: “low polyreactivity”.

Take “QVQLVESGGGLVQAGGSLRLSCAASGIISTYYVMGWYRQAPGKERELVAAITGGGTYYADSVKGRFTISRDNAKNTVYLQMNSLKPEDTAVYYCAVDGTYAYGYSRDYDYWGQGTQVTVSS”: the “polyreactivity (PSR sort gate)” value is reported as “low polyreactivity”. The result for “QVQLVESGGGLVQAGGSLRLICASSGRIFAGYAMGWYRQAPGKERELVAAIRDSGRTYYAVSVKGRFTISRDNAKNTVYLQMNSLKPEVTAVSYCAADAHSSYSPFRWYDYWGQGTQVTVSS” reads “low polyreactivity”.

Turning to “QVQLVESGGGLVQAGGSLRLSCAASGSIFSRYAMGWYRQAPGKESELVAASRWTDSSTYYADSVKGRFTISRDNAKNTVYLQMNSLKPEDTAVYYCAKVYERGSNKVDYWGQGTQVTVSS”, the “polyreactivity (PSR sort gate)” value is “low polyreactivity”. Turning to “QVQLVESAGGLVQAGASRRLSCAASGRTVSLYTMGWSRQSPGKESELVASITSSGSTSYADSVKGRFTISRDNAKNTVYLQMNSLKPEDTAVYYCNAAVSYPKYPYVSPGVPSYDYWGQGTQVTVSS”, the “polyreactivity (PSR sort gate)” value is listed as “low polyreactivity”. Consider “QVQLVESGGGLVQAGGSLRLSCAASGRTFDPYAMGWYIQAPGKERELVAAITSGDDTYYADSVKGRFTISRDNAKNTVYLQMNSLKPEDTAVYYCAADSFTPDYYSHDYWGQGTQVTVSS”, for which the “polyreactivity (PSR sort gate)” value was “low polyreactivity”. With “QVQLVESGGGLVQAGGSLRLSCAASGIIFVINAMGWYRQAPGKERELVATITGSGTTNYADSVKGRFTISRDNAKNTVYLQMNSLKPEDTAVYYCARDDTEYARTGAYDYWGQGTQVTVSS”, the “polyreactivity (PSR sort gate)” value is on record as “low polyreactivity”. The result for “QVQLVESGGGLVQAGGSLRLSCAASGSTFKPYAMGWYRQAPGKERELVAAISRGTRTYADSVKGRFTITRDNAKNTVYLQMNSLKPEDTAVYYCAAEWRWIFGYHYEYDYWGQGTQVTVSS” reads “low polyreactivity”; that for “PLQLVESGGGLVQAGGSLRLSCAASGRIFGTYAMGWYRQAPGKERELVAAITLSDGSTYYADSVKGRFTISRDNAKNTVYLEMNSLIPDDTAVYYCAAVVDRFHPGLYEYWGQGTQVTVSS”, “low polyreactivity”; that for “QLQLVETGGGLVQAGASLRLSCAASGSIFVPYAMGWYIQAPGKERELVAAISRGGDTNYADSVKGRFTISRDNAKNTVYLQMISLKPEDTAVYYCNRARHLYSRWHGGYYYWGQGTQVNVSS”, “low polyreactivity”. For “QVQLVESGGGLVQAGGSLRLSCAASGFTFDDYTMGWYRPAPGKEREFVAAISSSGGSTYYADSVKGRFTISRDNAKNTVYLQMNSLKPVDTAVYYCAADARYYDYYEYDYWGQGTQVTVSS”, the “polyreactivity (PSR sort gate)” value is “high polyreactivity”. For “QLQLVESGGGLVQAGGRLRLSCAASGLNFYDNMGWYRQPPGKEREFVAAISSSGGSTSYADSVKGRFTISRDNAKNTVYLQMNSLKPEDRAVYYCAADSYPAYLGFVGFDYWGQGTQVTVSS”, the “polyreactivity (PSR sort gate)” value is reported as “low polyreactivity”. Consider “QVWLQESGGGLVQACGSLSLSCAASGTISRDIFMGWYRQAPGKEREFVATIAQGGITNYADSVKGRFTISRDNAKNTVYLQKNSVKPGDTAVYYCEALDGNCYWFYYWGQGTQVTVSS”, for which the “polyreactivity (PSR sort gate)” value is on record as “high polyreactivity”. “QVQLVESGGGLVQAGGSLRLSCAASGLTFQWNAMGWYRQATGKERELVAVITDIGDSTYYADSVKGRFTISRDNAKNTVYLQMNSLKPEDTAVYYCAADFGTISIDVYSWMDYWGQGTQVTVSS”: the “polyreactivity (PSR sort gate)” value is recorded as “low polyreactivity”. For the sequence “QVQLVESGGGLVQAGGSLRLSCAASGSIFTGYAMGWYRQAPGKDRELVAAISWRGGGTYYADSVQGRFTISRDNAKNTVYLQMNSQKPEDTAVYDCAAVTKFGQYAPGSKGYGYWGQATQVTVSS”, the “polyreactivity (PSR sort gate)” value is given as “low polyreactivity”. Turning to “QVQLVESGGGLVQAGGSLRLSCAASGRTFDRNAMGWYRQAPGKERELVARITIDGSTNYADSVKGRFTISRDNAKNTVYLQMNSLKPEDTAVYYCATDQLSLSWYFRPYDYGYWGQGTQVTVSS”, the “polyreactivity (PSR sort gate)” value is “high polyreactivity”.
